{"source": "IntAct's records for PubMed 9374523", "parents": {"B1": {"name": "MutS protein homolog 5 (Saccharomyces cerevisiae), Q12175 (parent)", "chain": "MSHEWLISASETMRSIGNGEGLRDKGAVVANNDGEFNEGDTNREEDSSTIFSFDFDEEIVMCIDFSGGKLGCSILDYHTKTLKAFDQDYVVNKTTISSHDLIDDADMSSNDISLLLGLLIMEANPTVCLVPARLEDWIFDYIKTKCDEINCRLELQPIKRFKKWDLLQSLQLRGHDNQTILNDILSNSKFTTTVTLGTVGCILANHEQLGEYNDSTASSNMVTGRLVQNAFEDVIHGIRYIDIRDRMVLDENTISALHIFPTAHKLGHDKMMRNGFFSVFELFNQVSSDYARRILKSWLINPLTNKKRIETRYSIIRTLLDKQNAIIFSDLSQSIKRCPDAFGFINQLRSGKSTLGTWSKVASFLEKGIAIFQLVSSLKLGSDEANILHDIKNKVDISALKECLRKVETVIDFDTSRDTKTLTINTGVDNRLDECRNIYNHLEGILLDVARETQIFLLNTMPQEDCKTTKSLEKLVNAVYIPQLGYLVTISVLMEPLLDGIPNLQWEEIFRSSENIYFKNGRVLELDETYGDIYGAISDFEIEILFSLQEQILRRKTQLTAYNILLSELEILLSFAQVSAERNYAEPQLVEDECILEIINGRHALYETFLDNYIPNSTMIDGGLFSELSWCEQNKGRIIVVTGANASGKSVYLTQNGLIVYLAQIGCFVPAERARIGIADKILTRIRTQETVYKTQSSFLLDSQQMAKSLSLATEKSLILIDEYGKGTDILDGPSLFGSIMLNMSKSEKCPRIIACTHFHELFNENVLTENIKGIKHYCTDILISQKYNLLETAHVGEDHESEGITFLFKVKEGISKQSFGIYCAKVCGLSRDIVERAEELSRMINRGDDVVQQCGNLTEKEMREFQKNQEIVKKFLSWDLDLETTTTSENLRLKLKNFLR", "partner": "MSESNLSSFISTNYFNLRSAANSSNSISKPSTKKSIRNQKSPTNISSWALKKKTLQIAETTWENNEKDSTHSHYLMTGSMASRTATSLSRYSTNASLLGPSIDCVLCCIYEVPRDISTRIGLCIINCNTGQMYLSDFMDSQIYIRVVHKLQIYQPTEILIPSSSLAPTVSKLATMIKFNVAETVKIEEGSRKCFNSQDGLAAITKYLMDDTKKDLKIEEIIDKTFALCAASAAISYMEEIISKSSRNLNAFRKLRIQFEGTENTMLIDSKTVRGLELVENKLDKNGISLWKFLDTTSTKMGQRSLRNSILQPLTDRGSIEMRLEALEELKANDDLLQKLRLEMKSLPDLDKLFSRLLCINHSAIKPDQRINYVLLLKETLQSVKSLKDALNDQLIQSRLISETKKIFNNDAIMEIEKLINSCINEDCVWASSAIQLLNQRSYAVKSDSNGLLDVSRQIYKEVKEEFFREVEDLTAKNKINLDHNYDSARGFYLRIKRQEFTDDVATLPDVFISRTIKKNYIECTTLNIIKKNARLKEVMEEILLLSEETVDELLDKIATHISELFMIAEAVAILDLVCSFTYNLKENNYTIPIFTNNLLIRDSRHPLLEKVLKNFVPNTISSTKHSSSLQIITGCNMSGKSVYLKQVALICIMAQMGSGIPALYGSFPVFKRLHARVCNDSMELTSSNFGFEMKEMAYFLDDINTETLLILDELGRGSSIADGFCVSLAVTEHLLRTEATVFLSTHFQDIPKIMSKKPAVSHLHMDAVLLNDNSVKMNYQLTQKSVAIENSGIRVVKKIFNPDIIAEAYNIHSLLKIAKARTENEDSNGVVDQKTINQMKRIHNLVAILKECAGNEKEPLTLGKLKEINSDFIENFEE"}}}
{"variants_of": "B1", "settings": "with msh4_yeast MSH4, P40965"}
{"variant": "G643D", "effect of a mutation on the interaction": "with no effect"}
{"variant": "A644V", "effect of a mutation on the interaction": "with no effect"}
{"variant": "G648R", "effect of a mutation on the interaction": "with no effect"}
{"variant": "G821D", "effect of a mutation on the interaction": "with no effect"}
